Experiments:
GFP = GFP (UniProt P42212); settings: RNA transcript; printed sequence is the DNA template strand (RNA is its reverse complement); microcolumn qPCR recovery fit by simulation; non-specific background binding
hHSF2 [1] = target: T1, hHSF2 (Homo sapiens, UniProt Q03933 Q03933:1-536); experiment: EMSA; confirmed by FP (FIG. 22B); exact value only in figure; settings: tags: N-terminal GST; E. coli BL21(DE3)-RIPL; label: 3'-fluorescein (5-thiosemicarbazide)
Method: (§1) The candidate aptamers were 3′-end labeled with fluorescein 5-thiosemicarbazide (Invitrogen) as described previously (Ref. 16). 50 μL binding reactions were prepared with 2 nM fluorescently-labeled RNA and decreasing amounts of protein (2000 to 0 nM) in binding buffer containing 0.01% IGEPAL CA630, 10 μg/ml tRNA, and 3U of SUPERase•In RNase Inhibitor (Invitrogen). […] The gel was run for 80 minutes at 100 volts in refrigerated 0.5×TBE. Images were acquired using the fluorescein scan settings on a Typhoon 9400 imager (GE Healthcare Life Sciences). The resulting bands were quantified with ImageQuant software and the data was fit to the Hill equation using Igor (Wavemetrics) to estimate the equilibrium dissociation constant (KD).
(§2) The putative RNA aptamers were fluorescently end-labeled and then tested for binding to their hHSF targets using F-EMSA and FP assays (Ref. 16). An image of a typical F-EMSA result is shown in FIG. 17A for hHSF1-R5-1 aptamer binding to hHSF1 protein. […] The F-EMSA results were confirmed by the FP assays (FIGS. 22 and 23). Thus, the observed binding is not due to the affinity tags on the protein targets but rather specific domains of the targets themselves.

GST tag [2] = target: T2, GST tag (UniProt P08515 P08515:1-218); experiment: EMSA; no binding to GST tag alone; FP FIG. 22D; settings: tags: GST tag alone, ~30 kDa; label: 3'-fluorescein (5-thiosemicarbazide)
Method: as §1, §2

hHSF1 [3] = target: T3, hHSF1 (Homo sapiens, UniProt Q00613 Q00613:1-529); experiment: EMSA; room temperature 2 h, 10 ug/ml tRNA; confirmed by FP (FIG. 22A); exact value only in figure; settings: tags: N-terminal GST; E. coli BL21(DE3)-RIPL; label: 3'-fluorescein (5-thiosemicarbazide)
Method: as §1, §2

hHSF1 [4] = target: T3, hHSF1; experiment: EMSA; confirmed by FP (FIG. 23A); exact value only in figure; settings: tags: N-terminal GST; E. coli BL21(DE3)-RIPL; label: 3'-fluorescein (5-thiosemicarbazide)
Method: as §1, §2

GST tag [5] = target: T2, GST tag; experiment: EMSA; no binding to GST tag alone; FP FIG. 23D; settings: tags: GST tag alone, ~30 kDa; label: 3'-fluorescein (5-thiosemicarbazide)
Method: as §1, §2

hHSF2 [6] = target: T1, hHSF2; experiment: EMSA; room temperature 2 h, 10 ug/ml tRNA; confirmed by FP (FIG. 23B); exact value only in figure; settings: tags: N-terminal GST; E. coli BL21(DE3)-RIPL; label: 3'-fluorescein (5-thiosemicarbazide)
Method: as §1, §2

T2 sequence (P08515 whole entry, one chain of several): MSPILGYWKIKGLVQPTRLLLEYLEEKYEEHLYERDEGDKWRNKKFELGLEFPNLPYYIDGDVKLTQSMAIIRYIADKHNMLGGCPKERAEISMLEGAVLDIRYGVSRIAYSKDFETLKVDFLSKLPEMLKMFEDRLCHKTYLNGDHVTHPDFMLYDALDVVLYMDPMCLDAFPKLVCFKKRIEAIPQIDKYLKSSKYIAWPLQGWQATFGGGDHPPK
T1 sequence (Q03933 whole entry, one chain of several): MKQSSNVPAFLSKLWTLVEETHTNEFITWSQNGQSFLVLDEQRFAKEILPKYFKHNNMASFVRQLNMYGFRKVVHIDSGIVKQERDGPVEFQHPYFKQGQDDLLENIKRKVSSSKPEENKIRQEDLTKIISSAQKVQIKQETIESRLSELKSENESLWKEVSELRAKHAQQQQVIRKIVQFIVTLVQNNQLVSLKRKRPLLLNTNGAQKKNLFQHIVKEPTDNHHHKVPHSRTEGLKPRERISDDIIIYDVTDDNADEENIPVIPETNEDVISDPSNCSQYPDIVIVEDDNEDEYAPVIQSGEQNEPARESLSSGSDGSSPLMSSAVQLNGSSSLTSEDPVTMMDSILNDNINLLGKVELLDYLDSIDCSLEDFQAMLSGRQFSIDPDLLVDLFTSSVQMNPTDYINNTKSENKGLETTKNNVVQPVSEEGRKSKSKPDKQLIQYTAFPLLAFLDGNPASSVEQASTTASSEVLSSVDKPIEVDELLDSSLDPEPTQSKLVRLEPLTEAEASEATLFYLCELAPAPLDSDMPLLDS
T3 sequence (Q00613 whole entry, one chain of several): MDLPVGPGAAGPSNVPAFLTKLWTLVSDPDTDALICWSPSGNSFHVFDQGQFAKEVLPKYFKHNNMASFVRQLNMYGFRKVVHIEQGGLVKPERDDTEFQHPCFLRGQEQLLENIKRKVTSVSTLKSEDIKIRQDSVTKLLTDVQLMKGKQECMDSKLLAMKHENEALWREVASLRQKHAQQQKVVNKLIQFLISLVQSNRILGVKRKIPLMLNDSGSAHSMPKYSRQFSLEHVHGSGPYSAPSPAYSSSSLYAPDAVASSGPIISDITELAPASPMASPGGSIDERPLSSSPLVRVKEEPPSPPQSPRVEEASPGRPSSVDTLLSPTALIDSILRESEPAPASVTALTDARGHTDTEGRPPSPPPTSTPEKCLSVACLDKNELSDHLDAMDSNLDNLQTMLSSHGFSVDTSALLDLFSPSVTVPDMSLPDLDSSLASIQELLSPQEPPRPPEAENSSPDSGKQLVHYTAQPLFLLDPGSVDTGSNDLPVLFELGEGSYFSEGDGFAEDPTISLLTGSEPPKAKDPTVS

AAGCUUCGUCAAGUCUGCAGUGAANNNNNNNNNNNNNNNNNNNNNNNNNNNNNNNNNNNNNNNNNNNNNNNNNNNNNNNNNNNNNNNNNNNNNNGAAUUCGUAGAUGUGGAUCCAUUCCC [N70 random RNA library]
Kd (GFP): > 10000 nM

B1: hHSF1-R5-1 (ssRNA)
RNA: GGGAAUGGAUCCACAUCUACGAAUUCAAUCAAGUCCCCAGACUCAGCAACACUGGACAGCGAUAUGCAGAUAACCAAGACCAAUUCACUCCAGUUCACUGCAGACUUGACGAAGCUU
Kd (hHSF2 [1]): < 20 nM | binding result (GST tag [2]): no binding | Kd (hHSF1 [3]): < 20 nM

B2: hHSF2-R5-2 (ssRNA)
RNA: GGGAAUGGAUCCACAUCUACGAAUUCAAUCAAGUCCCCAGACUCAGCAACACUGGACAGCGAUAUGCAGAUAACCAAGACCAAUUCACUCCAGUUCACUGCAGACUUGACGAAGCUU
Kd (hHSF1 [4]): < 20 nM | binding result (GST tag [5]): no binding | Kd (hHSF2 [6]): < 20 nM

Source: patent publication US20150204859, “MULTIPLEXED MICROCOLUMN DEVICES AND PROCESSES FOR SELECTION OF NUCLEIC ACID APTAMERS” (CORNELL UNIVERSITY, published 2015)
